Experiment [1] in a line: Reactivity of purified antibodies with various gangliosides (ELISA). In kind it is binding. The conditions noted are these: antibody 10 μg/ml, 20 pmol/well; FIG. 22. Here is the method: (§1) Each ganglioside (2 nmol) was dissolved in […] of ethanol solution containing 10 μg of dipalmitoylphosphatidylcholine (manufactured by SIGMA) and 5 μg of cholesterol (manufactured by SIGMA). In each well of a 96 well plate for ELISA (manufactured by Greiner), 20 μl of the solution (becomes 20 pmol/well) or 20 μl of the solution diluted with ethanol was respectively dispensed, followed by air-drying, and then PBS containing 1% BSA (hereinafter referred to as “1% BSA-PBS”) was added in 100 μl/well and allowed to react at room temperature for 1 hour to thereby block remaining active groups. After discarding 1% BSA-PBS, culture supernatants of transformants or diluted solutions of humanized antibodies were added in 50 μl/well and allowed to react at room temperature for 1 hour. […] After the reaction and subsequent washing with Tween-PBS, an ABTS substrate solution (a solution prepared by dissolving 0.55 g of 2,2′-azinobis(3-ethylbenzothiazoline-6-sulfonic acid) in 1 L of 0.1 M citrate buffer (pH 4.2) and adding 1 μl/ml hydrogen peroxide just before the use) was added in 50 μl/well for color development and the absorbance at 415 nm (hereinafter referred to as “OD415”) was measured.
(§2) Reactivity of purified anti-GD3 CDR-grafted antibodies KM8869, KM8870 and KM8871 with GD3 (manufactured by DIA-IATRON) was measured by the ELISA shown in the item 2 of Reference Example. […]

Experiment in experiment [2]: as above
In kind it is binding. Particulars: antibody 10 μg/ml, 20 pmol/well; FIG. 22. Here is the method: as §1, §2
This is another data set of the same source.

One molecule from patent US20080166345A1, “MEDICAMENTS COMPRISING GENE RECOMBINANT ANTIBODY AGAINST GANGLIOSIDE GD3” (KYOWA HAKKO KOGYO CO., LTD., priority 2001, published 2008) can be followed below.

B1: KM871: anti-GD3 human chimeric antibody; VH SEQ ID NO:49, VL SEQ ID NO:50, human IgG1 and κ C regions (antibody, listed as Mus musculus, V domains shown)
VH: EVTLVESGGDFVKPGGSLKVSCAASGFAFSHYAMSWVRQTPAKRLEWVAYISSGGSGTYYSDSVKGRFTISRDNAKNTLYLQMRSLRSEDSAMYFCTRVKLGTYYFDSWGQGTTLTVSS
VL: DIQMTQTASSLPASLGDRVTISCSASQDISNYLNWYQQKPDGTVKLLIFYSSNLHSGVPSRFSGGGSGTDYSLTISNLEPEDIATYFCHQYSKLPWTFGGGTKLEIKR
modifications: human IgG1 and kappa constant regions
For B1, the binding to ganglioside entry in experiment [1] is on record as “did not bind”; in experiment [2] it was “weakly”.
